In a protein production outcome set (Wang et al. 2014) one finds protein production data, which are given here for 18 sequences.
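Also: failed if final PepcDB status was selected cloned or expressed and not failed if soluble or beyond.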

This data set can be described thus: label from the status in PepcDB records.
Take “MFSGKRLKKRRITLGYSQSELADKLHINRSSYFNWENEKTKPNQSNLKQLAILLDVPETYFESEYKIVNTYLQLSLQNQEKVEKYAEELLQTQKVHEKIVPLFAVEVLSEIQLSAGPGEGLYDEFETETVYSEDEYTGFDIATWISGNSMEPVYKDGEVALIRSTGFDHDGAVYALNWNGSLYIKKLYREEDGFRMVSINPDVAERFIPFEDEIRIVGKIVGHFMPVIGGLEHHHHHH”: the protein production result was “not failed”.

For the sequence “MGKNLKGKELGKGLYQRKDGRYEARIFVRGTGKTFSIYGTNLQHLKKERNAYLANVSPGIAGYDPRISVSKWYEKWMLIYVVHSVKATTLSNYVNGFERVREYIGYMRLIEVRPTHILDMIKGLEEEGYARTTVIQSLSVVRQLFKKAYGGKMIPIDPVADIKLPKEEPGEIPDEKIMQEQEDEKCLSIYDTHRFLESCKNTRYYELFFILLHTGLRIGEALALEWCDLDFKHEKLRVYKTLNRVTKYYDLKGNELPERYSTIQITTPKKSASNRKVPLTDAVIAAFMSWKEKQDRDKEKLGKNWGKPNILLKKYPGLIFTTSSGRSYLPSSAQTECRRIVGIVNKHEIALAEKENRDPNLMDVHPHIFRHTFVTRCIQSGMDAATVKKIAGHSDEKMTNYYTHIEEEHIDDEYELYIQKYGTET”, the protein production entry was “failed”.

As to “MWAHCSAIARTMVYPSFFCSGDWLKVAAENLCPGDEAYILLAKDADDIRGVLPLVRKRNALGGTDLHYLGSDFYPDPLGLICSPADRADCAAALRNHLLNAPDWDRLILDFLLEDEPADWTLPGKPVSVAPFKVLPRDFSELLGEFKKKKRYNLRAMVKKLLDAGGELAASSGPESNIAYLDALFFLHEKRASERSLDSSFTGPRVQSLHRALVAASDNVRFFGLRLNGQMIAVIYGFEFCNRFFYYQVAHDPDHGHLSPGTVLLYLVIEACCVNGLTEFNFLQGDETYKGIWTNDSRILYRCVLNRSTWRSRVFSAVEESRGYVKRAMGLMSRGN”, the protein production result was “failed”.

For the sequence “MIEITFLGGGGGRFVTITQVRATGGFFIKASKNIYVDPGPGALVRMWRYKIDPRKVDVLFISHRHTDHCNDAEVLVEGMTYGVTKKRGTLIGSKSVVHGDENHTPALSKYHLDALEEVHAPNPGDRFKIGEDEMIITPSLHSDPTTIGFRLKTSYGDISYIPDTEYFEELVKWHDGARVIIAAVTRPRDMRIPFHLSSEDAVYLLKSMKQKPEVFIMTHAGMKMHFAGPYKEAQFIQNLTGVKTYVAKEGFKVSIGKEISVKTLRPARFVLEHHHHHH”, the protein production entry is reported as “not failed”.

In the case of “TSTFYELFPKTFPKKLPIWTIDQSRLRKEYRQLQAQHHPDMAQQGSEQSSTLNQAYHTLKDPLRRSQYMLKLLRNIDLTQEQTSNEVTTSDPQLLLKVLDIHDELSQMDDEAGVKLLEKQNKERIQDIEAQLGQCYNDKDYAAAVKLTVELKYWYNLAKAFKDWAPGKQLEMNH”, the protein production entry is recorded as “not failed”.

“MAKIVQLPDDLSNKIAAGEVVERPASVVKELVENAIDANSSVIEIDVEEAGLASIKVLDDGEGMDAEDCRTAFLRHATSKIKDENDLFRVRTLGFRGEALPSIASVSHLSIKTSTGEGAGTHLTLQGGRIISEQKAPSRRGTEITVTNLFFNTPARLKYMKTIHTELGNITDVVNRIALAHPEVSIRLRHQGKTLLQTNGNGDVRHVLAAIYGTAVAKKMLPLEARSLDFEVKGYIALPEITRASRNYMSSVVNGRYIKNFPLVKAIHEGYHTLLPIGRHPITFIEINMDPLLVDVNVHPSKLEVRLSKETELHELIRDAIKDVFKQQQLIPSVQVPKKTAPLINKPEQQKLDFDQVREPAPLSDSDVEREYKPEPSFSAMKLSSLVKDPPPSAPVEREENVMQDTEPEWPGAEEYTPEAAPAVQAEPEQAGENVQDEETPKERVPIMYPIGQMHGTYILAQNENGLYIIDQHAAQERIKYEYFREKVGEVESEVQDLLVPLTFHYSKNEALTIDQHLDDLAKVGVFLESFGAGSYIVRCHPTWFPKGEETTIIEDIIQQVLDDRTIDIKKLREEAAIMMSCKGSIKANHHLRDDEITALLDELRRTSDPFTCPHGRPIIIHYSTYEMEKMFKRVM”: the protein production result is given as “failed”.

“MTRPEASGPPDATRLGHLLGPHGVQGGIKLYVLGDPAQVLALKRVYVESRGWLSLRRAEGMPPNLVLYLAGVSSREGAEELRGLQVYATDAELPDLEEGTFYYHDLRGLEVYGAGGERLGTVSDVMDAGHQDLLVVDYGGGTSFVPLQAPYVEVPLAGGKPGAVHLTADAPAGLIGPEPGEEDGAAESLEHHHHHH”: the protein production entry is on record as “not failed”.

As to “SDSRPAVLDLIGNTPLVRVTRFDTGPCTLYLKLESQNPGGSIKDRIGVAMIEAAERDGRLRPGGTIVEATAGNTGLGLALVGRAKGYRVVLVVPDKMSTEKVLHLRAMGAEVHITRSDVGKGHPEYYQDVAARLAQDIPGAFFADQFNNPANPLAHECGTGPELWAQTGHDLDAIVVGVGSSGTLTGLTRFFQKVQPELEMVLADPEGSIMAEYSRSGTLGTPGSWAVEGIGEDFVPAIADLSSVRHAYSISDEESFAMARELLRVEGIPGGSSTGTLLAAALRFCREQKEPKRVVSFVCDTGTRYLSKIYNDQWMTDQGLLQRKHYGDLRDIIARRFEEGRVISVGPDDTLLTAFQRMRLADVSQLPVLDDGKLVGVIDESDILLGVHADAPRFRDAVSSAMNAAPETLAPGASLAQLQAVLDRGLVAIVADASGFHGLITRFDLL”, the protein production entry is “failed”.

With “MPAPLSIVIPTLQAESSLPRLLEALIEGLPNGLIREVIVSDGGSQDATRAIAEAAGAQVLNGPPSRGGQLRHGCDAARGDWLLVLHADTLPDPGWAGVVADHIAAREDAACFRLAFRARGPGAAWVAGWANLRTRLFGLPYGDQGLLIRRRDYQTAGGYPDQLLMEDVHLVRALSRAPVLLPHRALTGAERYLRSGWLRRGARNLWTLMRYFAGTDPEALARAYRRLEHHHHHH”, the protein production result is reported as “failed”.

As to “MSDAHVLKSRLEWGEPAFTILDVRDRSTYNDGHIMGAMAMPIEDLVDRASSSLEKSRDIYVYGAGDEQTSQAVNLLRSAGFEHVSELKGGLAAWKAIGGPTEGIIESRLEHHHHHH”, the protein production entry is on record as “failed”.

For the sequence “MRQWIAVFALVGSVAAQAGVADQAAAVSALKEGKLAMDVRSQTDYEAGTVLNAVRVDERRLVNQMKQVLSDRNAVFVIFSSTDSKADKAQEKLRAAGYFSVINGGNYEELHNALYDITDDPAE”, the protein production entry is listed as “failed”.

Take “GKVSIPSIVYDIVRKNGGNKILLVGNGMLASEIAPYFSYPQYKVTVAGRNIDHVRAFAEKYEYEYVLINDIDSLIKNNDVIITATSSKTPIVEERSLMPGKLFIDLGNPPNIERGNNVITLDEIYEISKKNEMLREEKINQ”: the protein production entry is given as “not failed”.

With “MELLKHLSQRQYIDGEWVESANKNTRDIINPYNQEVIFTVSEGTKEDAERAILAARRAFESGEWSQETAETRGKKVRAIADKIKEHREALARLETLDTGKTLEESYADMDDIHNVFMYFAGLADKDGGEMIDSPIPDTESKIVKEPVGVVTQITPWNYPLLQASWKIAPALATGCSLVMKPSEITPLTTIRVFELMEEVGFPKGTINLILGAGSEVGDVMSGHKEVDLVSFTGGIETGKHIMKNAANNVTNIALELGGKNPNIIFDDADFELAVDQALNGGYFHAGQVCSAGSRILVQNSIKDKFEQALIDRVKKIKLGNGFDADTEMGPVISTEHRNKIESYMDVAKAEGATIAVGGKRPDRDDLKDGLFFEPTVITNCDTSMRIVQEEVFGPVVTVEGFETEQEAIQLANDSIYGLAGAVFSKDIGKAQRVANKLKLGTVWINDFHPYFAQAPWGGYKQSGIGRELGKEGLEEYLVSKHILTNTNPQLVNWFSK”, the protein production entry is on record as “not failed”.

As for “MHFKKSLVRSLITLAITATASTTVLANEVSGDISKFKSVGNEVNTKQKATGYIVQLKGKTAIAQAQEIGELLPTNQLVANTGNRYNAHTPAMEAYTKALENKQKQVASSIDSINILHSFKHTYNGFTAKLNAKQKAQLESHPDVIGVYEDKLETVNTANTPEFLGLTGAGGQHAMNIKGEGVIIGVIDTGVWPENPSFADDGSYSDPADLGWLGSCDTGTDEEFACNNKLIGAKYFDSSFSSQYDIQYDLGEFDSPRDADGHGSHTASTAGGNESVAAMLSGTPVGTVSGMAPRARIAAYKVCWNSDYKNPEGGDEAGCFGGDTMAAIDAAVTDGVDVINYSIGGSRTDLTVPATAAMLNATAAGVFVAVSAGNDGPDKETVGTPAPWVTSVAASTYNGTSAIVGKALDITSGTLAGSSILSVPSGFSPATVGLSGELALAEPVQACNDAPLTNGEDLAGKIALIARGSCAFTEKFLNAQNAGAVGAIIYTTEGTSPFSMGGTDPAVTITGSMISFADGQSLTASIEDGSTSVAFTDNTAAGEAVEVGNTMADFSSRGPNLNTYDIIKPDITAPGVKILAATTSAPMFGTQGETFKYLQGTSMSSPHIAGLAALFKESNSSWSPAQIKSAMMTTARQNLTKEDGTTQADPYDFGSGHVAPVSALDPGLLFDTNLADYLAFLCGQDKEAFVSGYDTSCADLATAGFSTDASQLNLASIAIAELLEPETIFRTVSNATPIASSYTATVEAPAGFDISVQTFDAAGEETEASTLDVAAEGGKASFAITVSQTETTEIEAWKFGAITWTDGAGHSVRLPLAIKAIPSVQIEVPELISGDLNRGRFRFPVKMLYSGRTSIKHAGLVAPFGTAGTVEADPAQEFEFLGAGTNYHLFHIPEGTQVARFSLSDALVTEEGSDLDLYVYRCDKWSCAQVANSLNGGSNEDVVLTNPEPRADVDVGDVYVTMIHGYSTGAATETDYTMVGWIADQAERTTRVISSRRAINGRFNYTSILTRGLPTGTTYMGAVTYFNAEGEAEGTTVLELKN”, the protein production result is “failed”.

In the case of “MEVDLSGFNIDAPRWDQCTFLGRVKHFFNITDPRTVFVSEQELDWAKSVVEKSRMGLMPPGTQVEQLLYAKKLYDSAFHPDTGEKMNVIGRMSFQVPGGMIITGFMLQFYRTMPAVVFWQWVNQSFNALVNYTNRNAVSPTSVR”, the protein production result was “failed”.

In the case of “VELPTEYTEQFSSQPTLNSKPIIKFEFTGNSVDAPVLSMASKKFGIDFSILMSQIDYAGGVKFGFVIAEVEGDGEAITAAKCYLINNNVKVEVLGYVG”, the protein production entry was “failed”.

In the case of “MECAEKVEAEIPGQAGRRAGKPSRTYYLEVYGCSLSEFDALIMASRLEEAGYRRVARPEDADVILVNTCAVRLDTEQRIAERLEKLRLQLPDRKYVVAGCLVKARPGLVARLVPEASLLAPQAVERVLDAVDALESGRRLVVLDGRRDTRSMPQLPITDAVVTVMIQEGCLGDCSFCITKVARRQVRSYSPRVIVERVREAVEKGAREIRLTGTDVAVYGVDLPGKPNLADLVAAILEKVEGDYRIRVGMMTPDQVEPYLDSLLDVYRDERVYKYFHLPVQSGDDEVLKIMKRNYTVSEYKAIHRRIKSRFPDAMIATDIIVGHPGETWEAFWNTVRLVEELRFEKVHLAQYSLRPHTEAASMEQVPDSVKKERSRILGKIVAEIGLEINGSYVGRRVRALVTERSWREGSMTGRLDNYTPIILPYEERAMGRWVYAEVEEATFFDLRSSKFEPAPLEHHHHHH”, the protein production result is “failed”.

Turning to “MNLRPYQHTIVDFILTHPRCNLFVPMGLGKTVATLTALDVLLVVEDIAPILVIAPLRVAATTWPDEVAKFPHLRHLRVSVVVGSAAARRHALEQEADIYCINYDTLKWLVEFYKDRWPFRMVVADECSKLKGFRLRQGTRRARALATHVHTKVERYVGLTGTPAPNGLQDLWALMWMVDRGARLGTHFKAFIDRWFRAMQIGSDPHAVRFVPTPHASQEIQDKIRDICLSLDPHAYFDLCQPIVNTIRVALPAHAQRLYKAMEQDMFIALECGAEVEAFNAASKTIKCLQLANGALYTDDTRQAWEVVHDAKLEALHDIIEEAAGMPVLVAYHFKSDVARLQRAFPKGRALDKHPDTIRDWNAGNIPVLFAHPASAGHGLNLQDGGNILAFFGHWWDLEQYQQIIERIGPTRQAQAGHTRPVFIHHIVAAGTVDELVMARRESKREVQDLLLEAVKRRETGKPLTSQGAIAL”, the protein production entry is listed as “failed”.
